80 variants from the supplement of paper PMC11811203 can be followed below.

First the molecules themselves.
B1: THAP1; numbered along this chain (parent)
chain: MVQSCSAYGCKNRYDKDKPVSFHKFPLTRPSLCKEWEAAVRRKNFKPTKYSSICSEHFTPDCFKRECNNKLLKENAVPTIFLCTEPHDKKEDLLEPQEQLPPPPLPPPVSQVDAAIGLLMPPLQTPVNLSVFCDHNYTVEDTMHQRKRIHQLEQQVEKLRKKLKTAQQRCRRQERQLEKLKEVVHFQKEKDDVSERGYVILPNDYFEIVEVPA

The data set covers variants of B1. Description: THAP1 transcriptional activity (GFP+/GFP- enrichment relative to wild-type constructs) (ratio to WT); higher = more THAP1 activity (PSMB5 reporter activation). The note with it: with PSMB5 promoter-GFP reporter. Put shortly: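 Variants were counted by Illumina sequencing of genomic DNA amplicons from BFP+ cells sorted into GFP-bright and GFP-dim bins five days after lentiviral transduction, in duplicate at MOI ~0.3. The library changed each of residues 2–213 of human THAP1 to all 20 amino acids and was introduced into THAP1-knockout HEK-293T cells with mClover3 knocked in at endogenous PSMB5. Activity equals the replicate-mean bright/dim read fold change over the mean of wild-type synonymous constructs.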
On to L32S, for which the THAP1 transcriptional activity was 0.21. For the variant I149C, the THAP1 transcriptional activity is 0.454. Take S194R: the THAP1 transcriptional activity amounted to 0.998.

Regarding K34V, the THAP1 transcriptional activity is 0.529. With V139I the figure was 0.897; with M120Y, 0.474; with L163H, 0.178. The same measure for E157I: 1.2; for P60Y: 0.259; for K162V: 0.232. With K162C the figure was 0.329. Turning to S4L, the THAP1 transcriptional activity is 0.241.

D192V: the THAP1 transcriptional activity was determined as 1.22. F186P: the THAP1 transcriptional activity was found to be 1.48. With S110G the figure was 1.15; with Q155R, 0.65.

K16V: the THAP1 transcriptional activity stood at 0.255. With C10I, the THAP1 transcriptional activity amounted to 0.0687. C10L: the THAP1 transcriptional activity amounted to 0.167.

Consider E140Q, for which the THAP1 transcriptional activity turned out to be 1.61.

For the variant F63Q, the THAP1 transcriptional activity is 0.0896.

In the case of K49D, the THAP1 transcriptional activity was 0.12.

As for K49S, the THAP1 transcriptional activity was 0.261. With R171T the figure was 0.172; with R171C, 0.256; with E178P, 0.226.

For the variant S55K, the THAP1 transcriptional activity was determined as 0.0934. For P122E, the THAP1 transcriptional activity was 0.885. The same measure for K158W: 0.457; for H144V: 0.388. Turning to V112W, the THAP1 transcriptional activity worked out at 0.234. Consider S51T, for which the THAP1 transcriptional activity was found to be 0.421. As to P202F, the THAP1 transcriptional activity came to 0.497. With T59Y the figure was 0.0936; with Q99G, 1.87. The same measure for Q168W: 0.157; for Q187I: 0.687. With L105K the figure was 1.34; with H87V, 1.56.

Turning to R175E, the THAP1 transcriptional activity amounted to 0.554. With I208E the figure was 1.41. On to C33M, for which the THAP1 transcriptional activity is 0.188. With R169V the figure was 0.347; with C67D, 0.135. The same measure for Y8M: 0.368; for Q145F: 0.716. The same measure for I53F: 0.0519; for I53E: 0.101; for H185G: 0.927.

For R41Q, the THAP1 transcriptional activity stood at 0.878. On to Q151N, for which the THAP1 transcriptional activity was determined as 0.636.

As for E66S, the THAP1 transcriptional activity is 1.14.

Take K11R: the THAP1 transcriptional activity was found to be 0.771.

Consider K11L, for which the THAP1 transcriptional activity was determined as 0.191. Consider K164R, for which the THAP1 transcriptional activity amounted to 1.17. With D141R the figure was 0.588.

With D141Q, the THAP1 transcriptional activity was 0.581. For the variant Q167N, the THAP1 transcriptional activity turned out to be 0.559. On to R13L, for which the THAP1 transcriptional activity stood at 0.229. With D113H the figure was 0.473; with P86H, 0.865. Turning to K18M, the THAP1 transcriptional activity was 0.186. On to E35M, for which the THAP1 transcriptional activity came out at 0.787. As to P96K, the THAP1 transcriptional activity was found to be 1.37. As to K181R, the THAP1 transcriptional activity turned out to be 0.964. With K181N the figure was 0.511; with P126K, 0.562. For the variant P126Q, the THAP1 transcriptional activity came out at 0.962.

Q3H: the THAP1 transcriptional activity stood at 1.01. With D191F the figure was 0.695; with L93Y, 1.08; with H135Q, 0.151. The same measure for A166G: 0.258; for L201W: 0.749; for L27H: 0.0857.

Regarding L123Q, the THAP1 transcriptional activity was 0.814.

As for D92F, the THAP1 transcriptional activity was determined as 0.641. With P101S the figure was 1.96. The same measure for P26K: 0.155; for H23C: 0.0806.
